Results: PMC7350762

Target: Myc-tagged MKL-1 (1–705) (MKL-1△TAD) (UniProt Q969V6)
Sequence of UniProt Q969V6 (Q969V6 1-705): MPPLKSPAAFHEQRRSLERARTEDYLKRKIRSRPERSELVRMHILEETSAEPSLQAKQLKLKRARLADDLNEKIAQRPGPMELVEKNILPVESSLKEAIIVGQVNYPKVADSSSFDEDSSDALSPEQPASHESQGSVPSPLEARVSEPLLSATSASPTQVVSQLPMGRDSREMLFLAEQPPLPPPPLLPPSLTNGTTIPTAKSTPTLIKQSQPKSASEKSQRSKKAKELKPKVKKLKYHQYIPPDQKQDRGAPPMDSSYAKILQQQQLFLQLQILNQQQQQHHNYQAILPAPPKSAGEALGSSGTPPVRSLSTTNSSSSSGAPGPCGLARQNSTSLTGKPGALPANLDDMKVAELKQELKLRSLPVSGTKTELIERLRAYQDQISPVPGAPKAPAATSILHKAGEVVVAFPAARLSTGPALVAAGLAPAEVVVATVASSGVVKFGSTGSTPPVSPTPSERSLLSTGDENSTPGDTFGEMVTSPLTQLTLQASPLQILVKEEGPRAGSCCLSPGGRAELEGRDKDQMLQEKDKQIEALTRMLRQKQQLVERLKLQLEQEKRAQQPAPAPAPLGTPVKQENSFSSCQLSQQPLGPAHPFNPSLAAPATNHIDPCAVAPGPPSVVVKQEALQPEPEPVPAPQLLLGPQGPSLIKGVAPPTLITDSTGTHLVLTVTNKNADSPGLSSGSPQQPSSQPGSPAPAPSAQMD

- reduction in MKL-1 transactivation of the Foxp3 reporter (luciferase assay, HEK-293 T cells) by the mutation of the TAD of MKL-1: 60%
Substance: Flag-tagged STAT5b (WT-STAT5b) (from UniProt P51692 1-787) (natural protein)
